Drawing on publication PMC7544158 (Nature structural & molecular biology, 2020), this text covers Kd for 1 molecule.

Like-named read-outs stand apart in the source and are kept apart here. Where no end group is shown, it is not given here. The star is where a group is joined. FITC = O=C1OC2(c3ccc(O)cc3Oc3cc(O)ccc32)c2ccc(NC(=S)*)cc21

Holding throughout (assay): fluorescence polarisation
For experiment [1], the target named is T1, BFL-1ΔC C55 (N-His6 BFL-1ΔC (1–151) bearing C4S/C19S mutations) (human, UniProt Q16548 1-151, C4S | C19S).
T1 sequence (looked up): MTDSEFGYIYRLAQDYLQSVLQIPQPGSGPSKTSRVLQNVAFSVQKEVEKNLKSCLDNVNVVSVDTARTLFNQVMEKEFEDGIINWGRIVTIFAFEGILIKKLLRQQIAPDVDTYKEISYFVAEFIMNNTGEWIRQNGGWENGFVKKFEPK

Experiment [2] addresses T1, BFL-1ΔC C55 (N-His6 BFL-1ΔC (1–151) …). The source holds these as a separate data set.
For experiment [3] the target is unchanged. The source holds these as a separate data set.
The target is the same in experiment [4]. This is another data set of the same source.
For experiment [5] the target is unchanged. This is another data set of the same source.

What is called Kd is the concentration at which binding is half-saturated. A low value points to tighter binding. Consider {FITC}-DIIRNIARHLAQVGDSMDRSI [FITC-BID BH3 peptide], for which the Kd came out at 18.4 nM in experiment [1]; 12.3 nM in experiment [2]; 3.3 nM in experiment [3]; 1.6 nM in experiment [4]; 24.3 nM in experiment [5].
